Here are results for one substance from US20170145391.

In one series the target is 4E-BP1 (Calbiochem) (UniProt Q13541).
The target in another series is His-S6K1C (UniProt P23443).
His-S6K1C, sequence (P23443 332-502): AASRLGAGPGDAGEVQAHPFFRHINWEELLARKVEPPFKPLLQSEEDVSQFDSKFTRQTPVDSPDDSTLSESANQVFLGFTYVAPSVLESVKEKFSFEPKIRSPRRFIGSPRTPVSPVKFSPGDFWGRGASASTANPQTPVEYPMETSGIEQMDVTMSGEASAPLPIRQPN

4E-BP1 (Calbiochem), sequence (Q13541 whole entry): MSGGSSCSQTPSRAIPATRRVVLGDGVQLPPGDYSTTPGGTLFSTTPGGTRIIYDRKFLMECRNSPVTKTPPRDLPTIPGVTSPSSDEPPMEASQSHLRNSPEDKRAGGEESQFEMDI

As for FLAG-mTORα, the “mTOR in vitro kinase assay; immunoblot with phosphospecific antibody pS65-4E-BP1” value in the series with 4E-BP1 (Calbiochem) is “mTORβ can phosphorylate both S6K1 and 4E-BP1 in vitro, but to a lesser extent than mTORα”. The “mTOR in vitro kinase assay; immunoblot with phosphospecific antibody pT389-S6K1” value with His-S6K1C is “mTORβ can phosphorylate both S6K1 and 4E-BP1 in vitro, but to a lesser extent than mTORα”.
